Assay results: US20060183664A1, “Pharmaceutical composition for delayed hypersensitivity” (priority 2001, published 2006)

Target: T1, PAR-2 (Homo sapiens, UniProt P55085)
T1 construct: expressed in transfected cells; host or cells: NCTC2544 cells
T1 sequence (P55085 26-397): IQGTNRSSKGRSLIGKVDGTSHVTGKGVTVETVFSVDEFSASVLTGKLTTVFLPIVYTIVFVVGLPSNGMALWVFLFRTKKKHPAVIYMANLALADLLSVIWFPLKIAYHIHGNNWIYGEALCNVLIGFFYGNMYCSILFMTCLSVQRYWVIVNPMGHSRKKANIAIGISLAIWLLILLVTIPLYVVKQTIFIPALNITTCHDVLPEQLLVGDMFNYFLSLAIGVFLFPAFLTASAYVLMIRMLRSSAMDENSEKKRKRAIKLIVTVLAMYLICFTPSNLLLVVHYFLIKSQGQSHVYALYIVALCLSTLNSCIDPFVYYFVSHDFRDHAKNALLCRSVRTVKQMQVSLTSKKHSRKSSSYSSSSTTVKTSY
Test: Assay of PAR-2 activation using inositol phosphates as an indicator in NCTC2544 cells with stably high expression of PAR-2
Type: cell-based
Details: subject substance added 15 min before stimulation
Description: The invention also provides a novel method for measuring PAR-2 activity. PAR-2 belongs to G-protein-coupled receptor (GPCR) family, and produces inositol phosphates as a second messenger upon activation of the receptor. Based on this mechanism, the effects of subject substances in activation of PAR-2 can be determined quantitatively by quantifying produced inositol phosphates in PAR2-expressing cells by an ion chromatography or the like.
NCTC2544 cells with stably high expression of PAR-2 were cultured in the serum-free medium containing […]/ml of [^3H]-myo-inositol for 18 hours. Lithium chloride (final […]) was added 30 min before the stimulation, and subsequently cells were stimulated with trypsin (1 to 30 nM) or the PAR-2 agonist peptide, SLIGKV (10 to 300 μM). After 45 min the lipid component was extracted with methanol and separated using an anion exchanging resin (AG1-X, formate form). Then the yield of inositol phosphates was determined in a scintillation counter. The subject substance was added 15 min before the stimulation.

B1: trypsin inhibitor derived from soybeans: a trypsin inhibitor derived from soybeans, used as subject substance in the PAR-2 inositol phosphate assay (protein, UniProt P01070 25-205, looked up)
Trypsin inhibitor A: DFVLDNEGNPLENGGTYYILSDITAFGGIRAAPTGNERCPLTVVQSRNELDKGIGTIISSPYRIRFIAEGHPLSLKFDSFAVIMLCVGIPTEWSVVEDLPEGPAVKIGENKDAMDGWFRLERVSDDEFNNYKLVFCPQQAEDDKCGDIGISIDHDDGTRRLVVSKNKPLVVQFQKLDKESL
SLIGKV-mediated activation of PAR-2 (inositol phosphate production) (stimulation with PAR-2 activating peptide SLIGKV): not affected | Trypsin-mediated activation of PAR-2 (inositol phosphate production) (stimulation with trypsin): inhibited
